Measured values as given in US20240101646A1 (VANDERBILT UNIVERSITY, published 2024).

Molecular target: T1, SARS-CoV-2 NTD (SARS-CoV-2, UniProt P0DTC2 14-305)
T1 construct: domain: NTD
Assay: ELISA, antigen plated at 2 µg/mL (FIG. 12A)

B1: antibody 5317-10 (antibody, V domains shown)
VH: EVQLVQSGAEVKKPGESLTISCKASGYRFTSNWITWVRQMPGKGLEWMGRIDPDDPYSNSSPSFQGHATLSLDKAINTAYLHWSSLKASDTAMYYCARVNRVGDGPDFWGQGTLVTVSS
VL: DIVMTQSPLSLPVTPGEPASISCRSSQSLLFGNGYTYLNWYLQKPGQSPQLLIYLGSNRASGVPDRFSVSGSGTDFTLIISRVEAEDVGVYFCMQALQTPWTFGQGTKVEIK
- binding result: no binding
